For assay [1], the target named is human CLDN18.2 (human). The assay is described as follows: cell-based or functional assay.
Assay [2] addresses CLDN18.2 of SNU620 cells (methionine to leucine at amino acid 149) (human, UniProt P56856-2 1-261). Nature of the assay: cell-based or functional assay.
In assay [3] the target is T1, human CD3 on Jurkat cells (human, UniProt P07766 23-207).
T1 construct: whole, on cells; on cells it stands in the whole CD3/TCR complex; also called CD3-expressing cells
Nature of the assay: FACS on Jurkat cells (CD3).
Description: (§1) Antibodies were assayed for binding affinity by FACS. Test cells include HEK293/hCLDN18.2, HEK293/hCLDN18.1, NUGC4_D8 and Jurkat cells. […] The cell density was adjusted to 10⁶ cells/mL, and 50 μL of the cell suspension was added to each well of a 96-well plate. Antibodies were diluted to different concentrations with FACS buffer, and 50 μL of the antibody dilution was added to each well of the 96-well plate. After 2 h of incubation at 4° C., the plate was washed twice with FACS buffer. […] After 1 h of incubation at 4° C., the plate was washed twice with FACS buffer. The cells were resuspended in fixative solution, and then the fluorescence of the cells was monitored using an FACS instrument (ACEA NovoCyte).

Assay [4] concerns the target T2, human CLDN18.2 (human).
T2 construct: the HEK293 line was made with a GenScript plasmid; also called hCLDN18.2
Nature of the assay: FACS on NUGC4_D8 cells.
Description: as §1

Assay [5] has as its target T2, human CLDN18.2. Nature of the assay: FACS on HEK293/hCLDN18.2 cells.
Description: as §1
In assay [6] the target is T1, human CD3 on Jurkat cells. The assay is described as follows: FACS on Jurkat cells (CD3). The source holds these as a separate data set.
Description: as §1
For assay [7], the target named is T1, human CD3 on Jurkat cells. The assay is described as follows: FACS on Jurkat cells (CD3). This is another data set of the same source.
Description: as §1

Where two headings read alike, the source gives them in different places.

T1 sequence (P07766 23-207): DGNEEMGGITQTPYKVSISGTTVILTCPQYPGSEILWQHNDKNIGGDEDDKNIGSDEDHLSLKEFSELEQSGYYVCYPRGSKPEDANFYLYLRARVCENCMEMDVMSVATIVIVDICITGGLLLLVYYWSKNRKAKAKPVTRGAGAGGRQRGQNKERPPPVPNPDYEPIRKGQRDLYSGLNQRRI
Sequence of CLDN18.2 of SNU620 cells (methionine to leucine at amino acid 149) (P56856 other isoform, or with tags, fused parts or gaps limits assumed): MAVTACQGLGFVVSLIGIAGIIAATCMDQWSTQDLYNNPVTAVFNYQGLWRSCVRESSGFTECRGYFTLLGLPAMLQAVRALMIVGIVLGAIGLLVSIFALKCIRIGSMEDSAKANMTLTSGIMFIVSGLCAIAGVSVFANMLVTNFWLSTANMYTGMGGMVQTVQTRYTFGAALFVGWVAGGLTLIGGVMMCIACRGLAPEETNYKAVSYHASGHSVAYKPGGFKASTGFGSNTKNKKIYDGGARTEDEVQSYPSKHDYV

B1: PR005422 (bispecific antibody, human IgG1, lambda, L234A L235A)
chain: EVQLVESGGGLVQPGGSLRLSCAASGFTFSSYWMYWVRQVPGKGLVWVSHINPLGSTTQYADSVKGRFTISRDNAKNMLYLQMNSLRAEDTAVYYCARDFPVLGGSHFDFQHWGQGTLVTVSSGGGGSGGGGSGGGGSEVQLVESGGGLVQPGGSLRLSCAASGFTFSSYWMYWVRQVPGKGLVWVSHINPLGSTTQYADSVKGRFTISRDNAKNMLYLQMNSLRAEDTAVYYCARDFPVLGGSHFDFQHWGQGTLVTVSSASEPKSSDKTHTCPPCPAPEAAGGPSVFLFPPKPKDTLMISRTPEVTCVVVDVSHEDPEVKFNWYVDGVEVHNAKTKPREEQYNSTYRVVSVLTVLHQDWLNGKEYKCKVSNKALPAPIEKTISKAKGQPREPQVCTLPPSREEMTKNQVSLSCAVKGFYPSDIAVEWESNGQPENNYKTTPPVLDSDGSFFLVSKLTVDKSRWQQGNVFSCSVMHEALHNHYTQKSLSLSPGK
heavy: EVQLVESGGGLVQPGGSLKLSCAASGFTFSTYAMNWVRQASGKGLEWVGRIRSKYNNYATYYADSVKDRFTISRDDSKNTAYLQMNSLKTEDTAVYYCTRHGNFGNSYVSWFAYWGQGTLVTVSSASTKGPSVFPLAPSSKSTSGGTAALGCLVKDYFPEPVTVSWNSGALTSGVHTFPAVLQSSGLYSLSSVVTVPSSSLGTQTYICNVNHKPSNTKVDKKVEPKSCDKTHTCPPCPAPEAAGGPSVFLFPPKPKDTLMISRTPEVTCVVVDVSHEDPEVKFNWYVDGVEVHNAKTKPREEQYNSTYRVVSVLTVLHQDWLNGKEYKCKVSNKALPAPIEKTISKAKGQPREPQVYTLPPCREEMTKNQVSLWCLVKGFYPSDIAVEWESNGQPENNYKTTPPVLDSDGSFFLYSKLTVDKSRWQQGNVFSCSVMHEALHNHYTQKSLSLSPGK
light: QAVVTQEPSLTVSPGGTVTLTCRSSTGAVTTSNYANWVQQKPGQAPRGLIGGTNKRAPWTPARFSGSLLGDKAALTLLGAQPEDEAEYFCALWYSNLWVFGGGTKLTVLGQPKAAPSVTLFPPSSEELQANKATLVCLISDFYPGAVTVAWKADSSPVKAGVETTTPSKQSNNKYAASSYLSLTPEQWKSHRSYSCQVTHEGSTVEKTVAPTECS
notes: structure 1; CD3 Fab from PR003886, CLDN18.2 VH from PR007247; LALA
For B1, the “TDCC, Titer EC50 (pM), NUGC4_D8” value with human CLDN18.2 [1] was 21.9 pM. Moreover, the “TDCC, Titer EC50 (pM), SNU620” value in assay [2] is 313 pM. In assay [3], the binding result was “binds”.

B2: PR005072 (bispecific antibody, human IgG1, lambda, L234A L235A)
chain: EVQLVESGGGLVQPGGSLRLSCAASGFTFSSYWMHWVRQVPGKGLVWVSRINSDGSRTIYADSVKGRFTISRDNAKNTLYLQMNSLRAEDTAVYYCARGEDHDILTGYPIRGQGTTVTVSSGGGGSGGGGSGGGGSEVQLVESGGGLVQPGGSLRLSCAASGFTFSSYWMHWVRQVPGKGLVWVSRINSDGSRTIYADSVKGRFTISRDNAKNTLYLQMNSLRAEDTAVYYCARGEDHDILTGYPIRGQGTTVTVSSASEPKSSDKTHTCPPCPAPEAAGGPSVFLFPPKPKDTLMISRTPEVTCVVVDVSHEDPEVKFNWYVDGVEVHNAKTKPREEQYNSTYRVVSVLTVLHQDWLNGKEYKCKVSNKALPAPIEKTISKAKGQPREPQVCTLPPSREEMTKNQVSLSCAVKGFYPSDIAVEWESNGQPENNYKTTPPVLDSDGSFFLVSKLTVDKSRWQQGNVFSCSVMHEALHNHYTQKSLSLSPGK
heavy: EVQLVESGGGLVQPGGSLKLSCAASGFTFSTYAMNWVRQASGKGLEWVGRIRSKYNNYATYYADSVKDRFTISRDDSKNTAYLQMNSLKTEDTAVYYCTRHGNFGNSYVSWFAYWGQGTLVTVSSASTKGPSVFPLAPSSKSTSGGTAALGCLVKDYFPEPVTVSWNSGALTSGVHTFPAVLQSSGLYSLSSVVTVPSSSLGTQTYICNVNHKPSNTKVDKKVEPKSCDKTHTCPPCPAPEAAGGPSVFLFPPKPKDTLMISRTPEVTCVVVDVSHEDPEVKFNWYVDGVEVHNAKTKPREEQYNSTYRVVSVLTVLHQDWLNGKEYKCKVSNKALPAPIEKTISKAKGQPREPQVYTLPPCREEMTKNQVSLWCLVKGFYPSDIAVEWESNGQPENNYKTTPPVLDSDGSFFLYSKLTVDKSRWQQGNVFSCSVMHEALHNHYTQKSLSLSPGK
light: QAVVTQEPSLTVSPGGTVTLTCRSSTGAVTTSNYANWVQQKPGQAPRGLIGGTNKRAPWTPARFSGSLLGDKAALTLLGAQPEDEAEYFCALWYSNLWVFGGGTKLTVLGQPKAAPSVTLFPPSSEELQANKATLVCLISDFYPGAVTVAWKADSSPVKAGVETTTPSKQSNNKYAASSYLSLTPEQWKSHRSYSCQVTHEGSTVEKTVAPTECS
notes: structure 1; CD3 Fab from PR003886, CLDN18.2 VH from PR004533; LALA
In general, EC50 refers to the concentration needed to bring the measured effect to its halfway point. The low end stands for a more potent agent, the high end for a less potent agent. On to B2, for which the EC50 came to 90.7 nM with human CLDN18.2 [4] and 15.7 nM in the assay with human CLDN18.2 [5]. The “TDCC, Titer EC50 (pM), NUGC4_D8” value in the assay with human CLDN18.2 [1] turned out to be 142 pM. Also, the “TDCC, Titer EC50 (pM), SNU620” value in assay [2] was determined as 34.5 pM. Besides, in assay [6], the binding result is “binds”.

B3: PR007080 (bispecific antibody, human IgG1, lambda)
chain: EVQLVESGGGLVQPGGSLRLSCAASGFTFSSYWMHWVRQVPGKGLVWVSRIDSRGSRTIYADSVKGRFTISRDNAKNTLYLQMNSLRAEDTAVYYCARGEDHDILTGYPIRGQGTTVTVSSGGGGSGGGGSGGGGSEVQLVESGGGLVQPGGSLRLSCAASGFTFSSYWMHWVRQVPGKGLVWVSRIDSRGSRTIYADSVKGRFTISRDNAKNTLYLQMNSLRAEDTAVYYCARGEDHDILTGYPIRGQGTTVTVSSASEPKSSDKTHTCPPCPAPEAAGAPSVFLFPPKPKDTLMISRTPEVTCVVVDVSHEDPEVKFNWYVDGVEVHNAKTKPREEQYNSTYRVVSVLTVLHQDWLNGKEYKCKVSNKALPAPIEKTISKAKGQPREPQVCTLPPSREEMTKNQVSLSCAVKGFYPSDIAVEWESNGQPENNYKTTPPVLDSDGSFFLVSKLTVDKSRWQQGNVFSCSVMHEALHNHYTQKSLSLSPGK
heavy: EVQLVESGGGLVQPGGSLKLSCAASGFTFSTYAMNWVRQASGKGLEWVGRIRSKYNNYATYYADSVKDRFTISRDDSKNTAYLQMNSLKTEDTAVYYCTRHGNFGNSYVSWFAYWGQGTLVTVSSASTKGPSVFPLAPSSKSTSGGTAALGCLVKDYFPEPVTVSWNSGALTSGVHTFPAVLQSSGLYSLSSVVTVPSSSLGTQTYICNVNHKPSNTKVDKKVEPKSCDKTHTCPPCPAPEAAGAPSVFLFPPKPKDTLMISRTPEVTCVVVDVSHEDPEVKFNWYVDGVEVHNAKTKPREEQYNSTYRVVSVLTVLHQDWLNGKEYKCKVSNKALPAPIEKTISKAKGQPREPQVYTLPPCREEMTKNQVSLWCLVKGFYPSDIAVEWESNGQPENNYKTTPPVLDSDGSFFLYSKLTVDKSRWQQGNVFSCSVMHEALHNHYTQKSLSLSPGK
light: QAVVTQEPSLTVSPGGTVTLTCRSSTGAVTTSNYANWVQQKPGQAPRGLIGGTNKRAPWTPARFSGSLLGDKAALTLLGAQPEDEAEYFCALWYSNLWVFGGGTKLTVLGQPKAAPSVTLFPPSSEELQANKATLVCLISDFYPGAVTVAWKADSSPVKAGVETTTPSKQSNNKYAASSYLSLTPEQWKSHRSYSCQVTHEGSTVEKTVAPTECS
notes: structure 1; CD3 Fab from PR003886, CLDN18.2 VH from PR007244; AAA
As for B3, it took 46.7 nM to reach a half-maximal effect with human CLDN18.2 [4] (EC50). In assay [7], the binding result is “binds”.

B4: PR007079 (bispecific antibody, human IgG1, lambda)
chain: EVQLVESGGGLVQPGGSLRLSCAASGFTFSSYWMHWVRQVPGKGLVWVSRISSAGSRTIYADSVKGRFTISRDNAKNTLYLQMNSLRAEDTAVYYCARGEDHDILTGYPIRGQGTTVTVSSGGGGSGGGGSGGGGSEVQLVESGGGLVQPGGSLRLSCAASGFTFSSYWMHWVRQVPGKGLVWVSRISSAGSRTIYADSVKGRFTISRDNAKNTLYLQMNSLRAEDTAVYYCARGEDHDILTGYPIRGQGTTVTVSSASEPKSSDKTHTCPPCPAPEAAGAPSVFLFPPKPKDTLMISRTPEVTCVVVDVSHEDPEVKFNWYVDGVEVHNAKTKPREEQYNSTYRVVSVLTVLHQDWLNGKEYKCKVSNKALPAPIEKTISKAKGQPREPQVCTLPPSREEMTKNQVSLSCAVKGFYPSDIAVEWESNGQPENNYKTTPPVLDSDGSFFLVSKLTVDKSRWQQGNVFSCSVMHEALHNHYTQKSLSLSPGK
heavy: EVQLVESGGGLVQPGGSLKLSCAASGFTFSTYAMNWVRQASGKGLEWVGRIRSKYNNYATYYADSVKDRFTISRDDSKNTAYLQMNSLKTEDTAVYYCTRHGNFGNSYVSWFAYWGQGTLVTVSSASTKGPSVFPLAPSSKSTSGGTAALGCLVKDYFPEPVTVSWNSGALTSGVHTFPAVLQSSGLYSLSSVVTVPSSSLGTQTYICNVNHKPSNTKVDKKVEPKSCDKTHTCPPCPAPEAAGAPSVFLFPPKPKDTLMISRTPEVTCVVVDVSHEDPEVKFNWYVDGVEVHNAKTKPREEQYNSTYRVVSVLTVLHQDWLNGKEYKCKVSNKALPAPIEKTISKAKGQPREPQVYTLPPCREEMTKNQVSLWCLVKGFYPSDIAVEWESNGQPENNYKTTPPVLDSDGSFFLYSKLTVDKSRWQQGNVFSCSVMHEALHNHYTQKSLSLSPGK
light: QAVVTQEPSLTVSPGGTVTLTCRSSTGAVTTSNYANWVQQKPGQAPRGLIGGTNKRAPWTPARFSGSLLGDKAALTLLGAQPEDEAEYFCALWYSNLWVFGGGTKLTVLGQPKAAPSVTLFPPSSEELQANKATLVCLISDFYPGAVTVAWKADSSPVKAGVETTTPSKQSNNKYAASSYLSLTPEQWKSHRSYSCQVTHEGSTVEKTVAPTECS
notes: structure 1; CD3 Fab from PR003886, CLDN18.2 VH from PR007243; AAA
B4: it took 73.2 nM to reach a half-maximal effect in the assay with human CLDN18.2 [4] (EC50). Further, in assay [7], the binding result is given as “binds”.

B5: PR005398 (bispecific antibody, human IgG1, lambda, L234A L235A)
chain: EVQLVESGGGLVQPGGSLRLSCAASGFTFSSYWMHWVRQVPGKGLVWVSRINFDSSRTIYADSVKGRFTISRDNAKNTLYLQMNSLRAEDTAVYYCARGEDHDILTGYPIRGQGTTVTVSSGGGGSGGGGSGGGGSEVQLVESGGGLVQPGGSLRLSCAASGFTFSSYWMHWVRQVPGKGLVWVSRINFDSSRTIYADSVKGRFTISRDNAKNTLYLQMNSLRAEDTAVYYCARGEDHDILTGYPIRGQGTTVTVSSASEPKSSDKTHTCPPCPAPEAAGGPSVFLFPPKPKDTLMISRTPEVTCVVVDVSHEDPEVKFNWYVDGVEVHNAKTKPREEQYNSTYRVVSVLTVLHQDWLNGKEYKCKVSNKALPAPIEKTISKAKGQPREPQVCTLPPSREEMTKNQVSLSCAVKGFYPSDIAVEWESNGQPENNYKTTPPVLDSDGSFFLVSKLTVDKSRWQQGNVFSCSVMHEALHNHYTQKSLSLSPGK
heavy: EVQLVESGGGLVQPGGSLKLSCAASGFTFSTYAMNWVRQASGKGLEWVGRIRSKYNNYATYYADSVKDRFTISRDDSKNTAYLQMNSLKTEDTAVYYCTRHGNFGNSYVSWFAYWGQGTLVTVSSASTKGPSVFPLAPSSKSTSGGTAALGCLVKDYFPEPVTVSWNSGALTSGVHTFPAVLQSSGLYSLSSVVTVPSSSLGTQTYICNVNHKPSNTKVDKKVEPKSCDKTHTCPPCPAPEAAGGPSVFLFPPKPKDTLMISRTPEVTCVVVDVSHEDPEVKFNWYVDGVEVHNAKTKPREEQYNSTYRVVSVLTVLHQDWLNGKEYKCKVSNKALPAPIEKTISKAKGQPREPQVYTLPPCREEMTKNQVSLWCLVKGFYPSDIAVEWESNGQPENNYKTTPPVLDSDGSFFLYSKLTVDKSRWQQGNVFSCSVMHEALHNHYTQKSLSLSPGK
light: QAVVTQEPSLTVSPGGTVTLTCRSSTGAVTTSNYANWVQQKPGQAPRGLIGGTNKRAPWTPARFSGSLLGDKAALTLLGAQPEDEAEYFCALWYSNLWVFGGGTKLTVLGQPKAAPSVTLFPPSSEELQANKATLVCLISDFYPGAVTVAWKADSSPVKAGVETTTPSKQSNNKYAASSYLSLTPEQWKSHRSYSCQVTHEGSTVEKTVAPTECS
notes: structure 1; CD3 Fab from PR003886, CLDN18.2 VH from PR007242; LALA
With B5, the EC50 is 19.4 nM in the assay with human CLDN18.2 [4] and 20.4 nM with human CLDN18.2 [5]. Also, the “TDCC, Titer EC50 (pM), NUGC4_D8” value in the assay with human CLDN18.2 [1] turned out to be 9 pM. Besides, the “TDCC, Titer EC50 (pM), SNU620” value in assay [2] stood at 18.3 pM. In addition, the binding result in assay [3] is reported as “binds”.

For the origin of these results see patent US20250340631A1 (HARBOUR BIOMED SHANGHAI, published 2025).
